Measured values: article PMC9408853

Columns and labels:
[1] = target: human C-C chemokine receptor type 7 (human) (UniProt P32248)
[2] = target: human C-C chemokine receptor type 7 (human) (UniProt P32248); remark: listed apart in the source
[3] = target: CCR7-LgBiT (human) (UniProt P32248)

Substance	cellular electrical impedance of HEK293 cells stably expressing CCR7, AUC[0–120], pEC50 [1]	G protein activation, Gαi-1 (nanoBRET, Gαi1-91-NLuc with Gγ2-LSS-mKATE2) in HEK293 cells stably expressing CCR7, pEC50 [2]	G protein activation, Gαi-2 (nanoBRET, Gαi2-91-NLuc with Gγ2-LSS-mKATE2) in HEK293 cells stably expressing CCR7, pEC50 [2]	G protein activation, Gαi-3 (nanoBRET, Gαi3-91-NLuc with Gγ2-LSS-mKATE2) in HEK293 cells stably expressing CCR7, pEC50 [2]	inhibition of forskolin-induced cAMP production (GloSensor) in HEK293 cells stably expressing CCR7, pEC50 [2]	ligand-induced CCR7 internalisation (flow cytometry of surface CCR7, 30 min at 37 °C) in HEK293 cells stably expressing CCR7, pEC50 [2]	ligand-induced β-arrestin2 recruitment to CCR7 (NanoBiT, CCR7-LgBiT with SmBiT-β-arrestin2 in HEK293 cells), pEC50 [3]
C-C chemokine ligand 19 (from UniProt Q99731 22-98)	8.2 pEC50 (M)	8.64 pEC50 (M)	9.02 pEC50 (M)	9.61 pEC50 (M)	7.83 pEC50 (M)	7.7 pEC50 (M)	7.61 pEC50 (M)
C-C chemokine ligand 21 (from UniProt O00585 24-134)	6.93 pEC50 (M)	8.44 pEC50 (M)	8.72 pEC50 (M)	9.34 pEC50 (M)	7.67 pEC50 (M)	6.73 pEC50 (M)	6.48 pEC50 (M)
